This passage reports Kd results from patent US20240158448A1 (published 2024).

Experiment [1] concerns the target T1, human SIRPα expressed on cells (PMA-differentiated THP-1 macrophages; A549 cells) (human, UniProt P78324 31-504). Nature of the experiment: fluorescence microscopy saturation binding; live THP-1 macrophages.
Experiment [2] has as its target T2, mouse SIRPα expressed on J774A.1 macrophages (mouse, UniProt P97797 32-513).
T2 chain: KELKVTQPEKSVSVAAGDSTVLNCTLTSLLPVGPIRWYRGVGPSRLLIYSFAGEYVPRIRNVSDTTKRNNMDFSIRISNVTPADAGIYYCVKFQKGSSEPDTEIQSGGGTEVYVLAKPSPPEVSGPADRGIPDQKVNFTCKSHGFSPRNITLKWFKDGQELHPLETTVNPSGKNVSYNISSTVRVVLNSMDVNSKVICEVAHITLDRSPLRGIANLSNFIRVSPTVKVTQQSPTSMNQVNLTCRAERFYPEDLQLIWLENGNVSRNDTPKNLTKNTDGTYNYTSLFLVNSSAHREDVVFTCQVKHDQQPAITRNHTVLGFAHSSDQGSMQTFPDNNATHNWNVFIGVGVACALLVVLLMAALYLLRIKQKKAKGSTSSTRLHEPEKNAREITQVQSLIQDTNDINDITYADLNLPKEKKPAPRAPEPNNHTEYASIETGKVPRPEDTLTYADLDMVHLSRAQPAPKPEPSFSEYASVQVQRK
Nature of the experiment: fluorescence microscopy saturation binding; live J774A.1 macrophages.

Experiment [3] concerns the target T1, human SIRPα expressed on cells …. Kind of experiment: fluorescence microscopy saturation binding; live THP-1 macrophages, corrected by subtracting nS-X-FAM.
Experiment [4] shares this target. Nature of the experiment: fluorescence microscopy saturation binding; fixed THP-1 macrophages.

No end group written: not given here. FAM = 5(6)-carboxyfluorescein

As to K(FAM)VTELTREG-NH2 [FAM-labeled nS-wt], the Kd (as a rule, the equilibrium constant for the complex coming apart) in experiment [1] is 148 µM; in experiment [2], 138 µM; in experiment [3], 52 µM.
In the case of K(FAM)VTELFREG-NH2 [FAM-labeled nS-F], the Kd in experiment [1] was determined as 195 µM; in experiment [3], 93 µM.
As for K(FAM)VTELVREG-NH2 [FAM-labeled nS-V], the Kd was determined as 161 µM in experiment [1], 32 µM in experiment [4], 203 µM in experiment [2] and 123 µM in experiment [3].
In experiment [1], K(FAM)LETVEGTR-NH2 [FAM-labeled nS-X] returned a Kd of 916 µM.
